PMC2674315 (Biochemistry, 2008)

B1: Sam domain of the EphA2 receptor (domain or fragment, human, UniProt P29317 901-976, looked up)
chain: SEGVPFRTVSEWLESIKMQQYTEHFMAAGYTAIEKVVQMTNDDIKRIGVRLPGHQKRIAYSLLGLKDQVNTVGIPI
B2: Sam domain of Ship2 (Src homology 2 domain-containing phosphoinositide-5-phosphatase 2) (domain or fragment, human, UniProt O15357 1194-1258, looked up)
chain: SGLGEAGMSAWLRAIGLERYEEGLVHNGWDDLEFLSDITEEDLEEAGVQDPAHKRLLLDTLQLSK

Assays:
[1] = molecular target: Arap3-Sam Sam (Homo sapiens) (UniProt Q8WWN8); assay: ITC; conditions: cited from earlier work
[2] = molecular target: Sam domain of Ship2 (Src homology 2 domain-containing phosphoinositide-5-phosphatase 2) (human) (UniProt O15357); assay: AUC
[3] = molecular target: B2; assay: ITC
[4] = molecular target: B1; assay: ITC
[5] = molecular target: T1, EphA2-Sam double mutant (H924N, R950A) (human, UniProt P29317 901-976, H924N | R950A); assay: ITC
T1 sequence (looked up): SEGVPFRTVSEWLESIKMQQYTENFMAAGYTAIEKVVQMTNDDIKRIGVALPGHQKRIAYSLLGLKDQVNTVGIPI

[6] = molecular target: T2, Sam domain of the EphA2 receptor, polyHis-tag cut with thrombin (human, UniProt P29317 901-976); assay: ITC
T2 sequence (looked up): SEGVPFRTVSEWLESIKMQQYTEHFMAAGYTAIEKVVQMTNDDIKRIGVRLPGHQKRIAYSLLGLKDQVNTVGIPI

Chain of Arap3-Sam Sam (Homo sapiens) (Q8WWN8 1-71): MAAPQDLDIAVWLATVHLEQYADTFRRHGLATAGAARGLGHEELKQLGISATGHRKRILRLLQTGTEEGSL

## Ship2-Sam Sam (from UniProt O15357)
[1]
  Kd: 0.1 µM

## Sam domain of Ship2 (Src homology 2 domain-containing phosphoinositide-5-phosphatase 2) (from UniProt O15357 1194-1258) (domain or fragment)
[2]
  Kd: 2000 µM

## B1
[3]
  stoichiometry N: 1

## B2
[4]
  Kd: 0.75 ± 0.12 µM
[5]
  Kd: 1.8 ± 0.6 µM

## Ac-EGLVHNGWDDLEFLSDITEEDL-NH2 [Shiptide (minimal peptide region of Ship2-Sam)]
[6]
  Kd: 19 ± 3 µM
